Experimental data as given in article PMC2845979 (Nature, 2009).

Biological target: the molecule itself
Assay: crystal structure

B1: minimal functional chicken ASIC1 construct (cASIC1mfc) (domain or fragment, UniProt Q1XA76 2-466, looked up)
chain: MDLKVDEEEVDSGQPVSIQAFASSSTLHGISHIFSYERLSLKRVVWALCFMGSLALLALVCTNRIQYYFLYPHVTKLDEVAATRLTFPAVTFCNLNEFRFSRVTKNDLYHAGELLALLNNRYEIPDTQTADEKQLEILQDKANFRNFKPKPFNMLEFYDRAGHDIREMLLSCFFRGEQCSPEDFKVVFTRYGKCYTFNAGQDGKPRLITMKGGTGNGLEIMLDIQQDEYLPVWGETDETSFEAGIKVQIHSQDEPPLIDQLGFGVAPGFQTFVSCQEQRLIYLPPPWGDCKATTGDSEFYDTYSITACRIDCETRYLVENCNCRMVHMPGDAPYCTPEQYKECADPALDFLVEKDNEYCVCEMPCNVTRYGKELSMVKIPSKASAKYLAKKYNKSEQYIGENILVLDIFFEALNYETIEQKKAYEVAGLLGDIGGQMGLFIGASILTVLELFDYAYEVIKHRLCR
stoichiometry N: 3
